The chains are these.
B1: Otu1-C120S-FLAG (enzyme, S. cerevisiae, UniProt P43558 1-301, looked up)
chain: MKLKVTGAGINQVVTLKQDATLNDLIEHINVDVKTMRFGYPPQRINLQGEDASLGQTQLDELGINSGEKITIESSDSNESFSLPPPQPKPKRVLKSTEMSIGGSGENVLSVHPVLDDNSSLFHAIAYGIFKQDSVRDLREMVSKEVLNNPVKFNDAILDKPNKDYAQWILKMESWGGAIEIGIISDALAVAIYVVDIDAVKIEKFNEDKFDNYILILFNGIHYDSLTMNEFKTVFNKNQPESDDVLTAALQLASNLKQTGYSFNTHKAQIKCNTCQMTFVGEREVARHAESTGHVDFGQNR
notes: Otu1, deubiquitinating enzyme of S. cerevisiae (Yod1 in mammals), with the active-site mutation C120S; pET28 with an N-terminal His6-tag and a TEV-protease cleavage site followed by a FLAG tag; source: E. coli BL21 CodonPlus (DE3) RIPL, purified (Ni-NTA, SEC)
B2: Yod1-C160S (enzyme, human, UniProt Q5VVQ6 1-348, looked up)
chain: MFGPAKGRHFGVHPAPGFPGGVSQQAAGTKAGPAGAWPVGSRTDTMWRLRCKAKDGTHVLQGLSSRTRVRELQGQIAAITGIAPGGQRILVGYPPECLDLSNGDTILEDLPIQSGDMLIIEEDQTRPRSSPAFTKRGASSYVRETLPVLTRTVVPADNSSLFTSVYYVVEGGVLNPACAPEMRRLIAQIVASDPDFYSEAILGKTNQEYCDWIKRDDTWGGAIEISILSKFYQCEICVVDTQTVRIDRFGEDAGYTKRVLLIYDGIHYDPLQRNFPDPDTPPLTIFSSNDDIVLVQALELADEARRRRQFTDVNRFTLRCMVCQKGLTGQAEAREHAKETGHTNFGEV
notes: Yod1, human, with the active-site mutation C160S; also called homolog of Otu1; source: E. coli BL21 CodonPlus (DE3) RIPL, purified (Ni-NTA, SEC)
B3: UBXN7-SBP (natural protein, human, UniProt O94888 1-489, looked up)
chain: MAAHGGSAASSALKGLIQQFTTITGASESVGKHMLEACNNNLEMAVTMFLDGGGIAEEPSTSSASVSTVRPHTEEEVRAPIPQKQEILVEPEPLFGAPKRRRPARSIFDGFRDFQTETIRQEQELRNGGAIDKKLTTLADLFRPPIDLMHKGSFETAKECGQMQNKWLMINIQNVQDFACQCLNRDVWSNEAVKNIIREHFIFWQVYHDSEEGQRYIQFYKLGDFPYVSILDPRTGQKLVEWHQLDVSSFLDQVTGFLGEHGQLDGLSSSPPKKCARSESLIDASEDSQLEAAIRASLQETHFDSTQTKQDSRSDEESESELFSGSEEFISVCGSDEEEEVENLAKSRKSPHKDLGHRKEENRRPLTEPPVRTDPGTATNHQGLPAVDSEILEMPPEKADGVVEGIDVNGPKAQLMLRYPDGKREQITLPEQAKLLALVKHVQSKGYPNERFELLTNFPRRKLSHLDYDITLQEAGLCPQETVFVQERN
notes: UBXN7, human, wild type; also called SBP-tagged version of UBXN7; homolog of Ubx5; source: E. coli BL21 CodonPlus (DE3) RIPL, purified (Ni-NTA, SEC); not shown: SBP, C-terminal, kept

Holding throughout (conditions): both partners purified
One assay concerns the target T1, Cdc48-UN ATPase complex (S. cerevisiae, UniProt P25694 1-835; P53044 1-361; P33755 1-580).
T1 construct: Cdc48 ATPase of S. cerevisiae, wild type; Ufd1 of S. cerevisiae; Npl4 of S. cerevisiae; also called Cdc48 with the Ufd1-Npl4 (UN) complex; source: E. coli BL21 CodonPlus (DE3) RIPL, purified (Ni-NTA, SEC); Cdc48 and UN mixed; copies: 6 + +
The assay is described as follows: pull-down; 1 µM Otu1-C120S-FLAG on anti-FLAG M2 agarose with 1 µM Cdc48, 1 µM UN and 1 µM Ub(n)-TAIL, with or without 1 µM Ubx5, SEC buffer, 5 mM ATPγS, 1 h, 4 °C; eluted with 3xFLAG peptide; fluorescence scan and Coomassie.

The assay “UBXN7-SBP” concerns the target B3. Nature of the assay: pull-down; 1 µM UBXN7-SBP on streptavidin agarose with 1 µM p97, 1 µM human UN, 1 µM Yod1-C160S and 1 µM Ub(n)-TAIL, SEC buffer, 5 mM ATPγS, 1 h, 4 °C; eluted with 2 mM biotin; Coomassie.
For the next assay, the target named is T2, Human p97 ATPase (human, UniProt P55072 1-806).
T2 construct: p97 (VCP), human, wild type; also called VCP; homolog of Cdc48; source: E. coli BL21 CodonPlus (DE3) RIPL, purified (Ni-NTA, SEC)
The assay is described as above.

Another assay addresses T3, human Npl4 (human, UniProt Q8TAT6 1-608).
T3 construct: Npl4, human; The plasmid paragraph tells of Npl4 in pET21 with a C-terminal His6 or FLAG-His6 tag and the purification paragraph of an untagged UN complex; neither says which holds for the human protein; also called hNpl4; source: purified; part of the 'human UN' complex
The assay is described as above.

T1 sequence (P25694 whole entry, chain 1 of 3): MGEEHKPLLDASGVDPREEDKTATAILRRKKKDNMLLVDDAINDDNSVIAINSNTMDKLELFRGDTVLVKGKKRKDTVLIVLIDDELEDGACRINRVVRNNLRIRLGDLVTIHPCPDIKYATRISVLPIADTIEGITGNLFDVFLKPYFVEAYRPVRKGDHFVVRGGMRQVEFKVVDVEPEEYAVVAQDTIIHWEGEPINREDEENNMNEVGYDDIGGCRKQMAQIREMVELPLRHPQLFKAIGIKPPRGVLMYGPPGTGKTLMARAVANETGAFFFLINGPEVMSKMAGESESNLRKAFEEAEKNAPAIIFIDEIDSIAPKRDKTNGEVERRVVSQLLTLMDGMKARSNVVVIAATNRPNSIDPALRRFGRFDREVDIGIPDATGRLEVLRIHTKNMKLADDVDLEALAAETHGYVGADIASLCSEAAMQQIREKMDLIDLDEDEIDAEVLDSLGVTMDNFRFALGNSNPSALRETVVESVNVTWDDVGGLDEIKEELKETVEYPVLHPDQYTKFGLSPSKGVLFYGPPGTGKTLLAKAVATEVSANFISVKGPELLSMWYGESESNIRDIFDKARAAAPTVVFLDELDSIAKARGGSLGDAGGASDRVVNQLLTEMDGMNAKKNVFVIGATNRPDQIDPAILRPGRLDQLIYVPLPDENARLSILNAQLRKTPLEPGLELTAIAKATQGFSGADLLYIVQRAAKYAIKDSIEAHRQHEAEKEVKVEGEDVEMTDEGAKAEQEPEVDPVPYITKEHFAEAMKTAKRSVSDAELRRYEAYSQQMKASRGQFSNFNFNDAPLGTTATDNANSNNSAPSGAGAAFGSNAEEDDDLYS
T1 sequence (P53044 whole entry, chain 2 of 3): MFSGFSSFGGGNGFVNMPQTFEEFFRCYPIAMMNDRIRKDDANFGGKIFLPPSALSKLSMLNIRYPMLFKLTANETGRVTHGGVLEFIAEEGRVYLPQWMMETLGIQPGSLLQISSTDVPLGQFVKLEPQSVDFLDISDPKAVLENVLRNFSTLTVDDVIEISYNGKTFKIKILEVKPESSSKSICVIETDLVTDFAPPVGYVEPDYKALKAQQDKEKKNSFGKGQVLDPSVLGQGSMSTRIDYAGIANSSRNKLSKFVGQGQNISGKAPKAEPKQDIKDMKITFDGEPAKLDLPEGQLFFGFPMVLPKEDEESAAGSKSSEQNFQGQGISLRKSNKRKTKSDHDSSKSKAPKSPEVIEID
T1 sequence (P33755 whole entry, chain 3 of 3): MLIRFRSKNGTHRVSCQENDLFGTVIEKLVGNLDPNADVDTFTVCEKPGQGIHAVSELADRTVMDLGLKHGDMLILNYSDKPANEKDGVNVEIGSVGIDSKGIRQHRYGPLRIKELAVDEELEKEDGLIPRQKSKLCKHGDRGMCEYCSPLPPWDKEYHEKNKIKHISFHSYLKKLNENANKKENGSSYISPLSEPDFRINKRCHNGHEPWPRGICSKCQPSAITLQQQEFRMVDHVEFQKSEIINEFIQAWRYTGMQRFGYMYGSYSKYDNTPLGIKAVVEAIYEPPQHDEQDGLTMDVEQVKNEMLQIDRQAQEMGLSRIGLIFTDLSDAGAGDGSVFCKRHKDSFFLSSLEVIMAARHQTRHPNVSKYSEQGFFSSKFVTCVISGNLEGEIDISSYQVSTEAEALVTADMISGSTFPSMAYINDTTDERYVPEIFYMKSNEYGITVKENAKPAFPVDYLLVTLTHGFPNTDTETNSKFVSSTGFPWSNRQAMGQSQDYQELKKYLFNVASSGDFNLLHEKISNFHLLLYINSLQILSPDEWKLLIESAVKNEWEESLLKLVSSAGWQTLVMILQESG
T2 sequence (P55072 whole entry): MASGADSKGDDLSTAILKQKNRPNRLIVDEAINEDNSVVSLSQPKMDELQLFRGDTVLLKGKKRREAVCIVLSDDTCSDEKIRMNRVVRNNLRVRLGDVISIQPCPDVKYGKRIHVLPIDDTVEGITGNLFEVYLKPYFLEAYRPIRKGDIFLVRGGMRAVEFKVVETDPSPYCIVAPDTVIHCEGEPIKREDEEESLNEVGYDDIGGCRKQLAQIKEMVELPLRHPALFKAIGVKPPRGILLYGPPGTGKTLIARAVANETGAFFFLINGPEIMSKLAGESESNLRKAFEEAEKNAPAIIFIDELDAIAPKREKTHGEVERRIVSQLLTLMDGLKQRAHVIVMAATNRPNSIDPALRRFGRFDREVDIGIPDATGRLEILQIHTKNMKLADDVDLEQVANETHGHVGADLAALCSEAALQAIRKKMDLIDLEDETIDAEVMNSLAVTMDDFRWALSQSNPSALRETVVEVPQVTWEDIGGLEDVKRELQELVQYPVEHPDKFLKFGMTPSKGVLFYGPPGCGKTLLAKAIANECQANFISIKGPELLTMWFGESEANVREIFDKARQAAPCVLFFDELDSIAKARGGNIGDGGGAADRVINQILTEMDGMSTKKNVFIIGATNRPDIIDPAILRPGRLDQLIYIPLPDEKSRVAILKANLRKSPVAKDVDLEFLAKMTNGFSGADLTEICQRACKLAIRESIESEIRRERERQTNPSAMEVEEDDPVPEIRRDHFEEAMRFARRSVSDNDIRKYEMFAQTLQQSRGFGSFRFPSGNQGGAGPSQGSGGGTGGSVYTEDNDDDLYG
T3 sequence (Q8TAT6 whole entry): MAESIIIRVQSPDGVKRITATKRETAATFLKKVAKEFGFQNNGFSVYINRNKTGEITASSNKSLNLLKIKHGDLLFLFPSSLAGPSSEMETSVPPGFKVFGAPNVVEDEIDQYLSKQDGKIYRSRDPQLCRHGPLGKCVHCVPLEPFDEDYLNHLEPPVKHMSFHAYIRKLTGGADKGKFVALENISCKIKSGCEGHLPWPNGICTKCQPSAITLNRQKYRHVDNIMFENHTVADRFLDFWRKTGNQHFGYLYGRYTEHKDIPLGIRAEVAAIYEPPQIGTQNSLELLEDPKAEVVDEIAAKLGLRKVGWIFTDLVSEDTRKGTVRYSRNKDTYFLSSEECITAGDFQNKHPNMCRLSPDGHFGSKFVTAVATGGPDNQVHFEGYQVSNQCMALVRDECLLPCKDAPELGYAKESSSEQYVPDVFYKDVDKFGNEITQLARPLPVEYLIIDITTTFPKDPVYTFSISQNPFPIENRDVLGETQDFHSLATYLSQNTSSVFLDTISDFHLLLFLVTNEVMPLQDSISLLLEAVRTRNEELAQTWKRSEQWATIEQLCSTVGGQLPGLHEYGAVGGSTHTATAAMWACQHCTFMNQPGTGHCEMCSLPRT

On to B1, for which the binding result in the assay with Cdc48-UN ATPase complex was “binds”.
Regarding B2, the binding result with UBXN7-SBP was “binds”.
With B3, the binding result with Human p97 ATPase and with human Npl4 was “binds” each time.

The values are drawn from publication PMC13087191 (Scientific Reports, 2026).
